pIC50: −log10 of the molar value.
Biological target: FcRI on U937 cells (human) (UniProt P12314)
Assay: unlabeled protein competing with the same 125I-labeled protein for binding to IFN-γ-treated U937 cells

FcRI on U937 cells (human), sequence (P12314 16-374): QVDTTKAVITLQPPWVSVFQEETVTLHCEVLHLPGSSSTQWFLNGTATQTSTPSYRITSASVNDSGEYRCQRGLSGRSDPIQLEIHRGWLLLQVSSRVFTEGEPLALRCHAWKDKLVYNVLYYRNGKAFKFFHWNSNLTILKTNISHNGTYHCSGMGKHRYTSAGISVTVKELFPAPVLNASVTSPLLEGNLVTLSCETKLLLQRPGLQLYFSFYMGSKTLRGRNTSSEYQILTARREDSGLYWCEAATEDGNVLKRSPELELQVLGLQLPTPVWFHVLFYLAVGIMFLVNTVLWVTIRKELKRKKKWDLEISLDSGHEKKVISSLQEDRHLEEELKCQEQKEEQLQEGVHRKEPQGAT

pIC50	Substance
7.12	human IgG1 (antibody)
7.15	hCTLA4-IgG1 (from UniProt P16410 37-161) (Fc fusion)

Source: patent publication US20050196402A1
